In PMC10247859, “Replisome-cohesin interactions provided by the Tof1-Csm3 and Mrc1 cohesion establishment factors” (Chromosoma, 2023):
Each block holds one binder with its values, some of them ahead of it.

What was measured:
Conditions in all cases: both partners purified
[1] = biological target: T1, Tof1-Csm3 complex (S. cerevisiae (budding yeast), UniProt P53840 1-1238; Q04659 1-317); assay: pull-down; Flag-tagged Chl1 (200-600 nM) held on anti-Flag M2 magnetic beads; Tof1-Csm3 as prey; interaction buffer
T1 construct: Tof1, budding yeast; Csm3, budding yeast; Held on calmodulin dynabeads when used as bait; source: purified as previously described (Yeeles et al. 2017)

[2] = biological target: T2, cohesin tetramer complex (Smc1-Smc3-Scc1-Scc3) (S. cerevisiae (budding yeast), UniProt P32908 1-1225; P47037 1-1230; Q12158 1-566; P40541 1-1150); assay: pull-down; cohesin tetramer (200-600 nM) held on Protein A dynabeads by anti-Pk antibody (Pk tag on Smc1); 200 nM prey, 30 °C, 5 min; 25 mM HEPES-KOH pH 7.6, 100 mM potassium glutamate, 10 mM magnesium acetate, 0.12% NP-40; SDS elution, Coomassie staining
T2 construct: Smc1, cohesin subunit, budding yeast; Smc3, cohesin subunit, budding yeast; Scc1, cohesin subunit, budding yeast; Scc3, cohesin subunit, budding yeast; also called cohesin complex; source: purified as previously described (Minamino et al. 2018): IgG agarose, 3C protease cleavage; copies: + + +

[3] = biological target: T3, Tof1 (S. cerevisiae (budding yeast), UniProt P53840 1-1238); assay: cross-linking; CLMS with sulfo-SDA; cohesin, Tof1-Csm3 and Chl1 with or without Mrc1 at 300-350 nM, 30 °C 5 min, cross-linker 2 h at 4 °C, UV 365 nm; LC-MS/MS, 1% FDR at residue-pair level; two samples merged
T3 construct: Tof1, budding yeast; the Tof1 chain of m2; Stood in the cross-linking sample as a chain of the Tof1-Csm3 complex; source: purified as part of Tof1-Csm3, as previously described (Yeeles et al. 2017)
T3 sequence (looked up): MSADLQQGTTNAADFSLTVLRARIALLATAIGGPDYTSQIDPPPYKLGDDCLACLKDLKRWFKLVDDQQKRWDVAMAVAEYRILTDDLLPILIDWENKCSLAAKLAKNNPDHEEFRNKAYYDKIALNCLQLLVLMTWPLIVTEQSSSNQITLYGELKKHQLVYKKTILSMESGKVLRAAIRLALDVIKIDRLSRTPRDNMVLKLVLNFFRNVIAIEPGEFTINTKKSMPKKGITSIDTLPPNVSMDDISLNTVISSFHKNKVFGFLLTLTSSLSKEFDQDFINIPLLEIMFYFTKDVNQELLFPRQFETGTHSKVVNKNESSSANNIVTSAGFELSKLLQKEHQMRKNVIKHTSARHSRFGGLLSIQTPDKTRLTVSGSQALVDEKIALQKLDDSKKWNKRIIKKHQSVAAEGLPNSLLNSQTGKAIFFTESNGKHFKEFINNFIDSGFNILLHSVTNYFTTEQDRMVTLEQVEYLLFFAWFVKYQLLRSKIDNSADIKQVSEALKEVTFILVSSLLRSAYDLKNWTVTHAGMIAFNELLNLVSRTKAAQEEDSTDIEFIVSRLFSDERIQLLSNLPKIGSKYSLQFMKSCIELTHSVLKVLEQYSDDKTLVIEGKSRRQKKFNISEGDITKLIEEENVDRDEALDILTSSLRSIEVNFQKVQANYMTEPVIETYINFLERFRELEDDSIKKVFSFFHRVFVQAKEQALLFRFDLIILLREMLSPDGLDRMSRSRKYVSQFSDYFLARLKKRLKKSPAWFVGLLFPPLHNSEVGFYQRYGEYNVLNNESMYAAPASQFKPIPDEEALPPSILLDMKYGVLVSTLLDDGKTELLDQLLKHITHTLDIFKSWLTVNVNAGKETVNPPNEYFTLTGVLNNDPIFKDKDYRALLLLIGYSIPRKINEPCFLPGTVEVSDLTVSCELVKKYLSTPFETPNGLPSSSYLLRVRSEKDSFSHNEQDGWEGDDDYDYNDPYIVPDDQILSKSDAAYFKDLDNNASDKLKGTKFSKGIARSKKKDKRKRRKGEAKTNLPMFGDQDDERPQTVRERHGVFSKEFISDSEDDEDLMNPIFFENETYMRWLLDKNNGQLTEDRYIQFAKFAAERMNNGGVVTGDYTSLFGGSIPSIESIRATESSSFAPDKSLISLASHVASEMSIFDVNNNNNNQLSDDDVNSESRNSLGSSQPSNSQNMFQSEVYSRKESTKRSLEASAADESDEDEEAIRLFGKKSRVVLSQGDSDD

T2 sequence (Q12158 whole entry, chain 3 of 2): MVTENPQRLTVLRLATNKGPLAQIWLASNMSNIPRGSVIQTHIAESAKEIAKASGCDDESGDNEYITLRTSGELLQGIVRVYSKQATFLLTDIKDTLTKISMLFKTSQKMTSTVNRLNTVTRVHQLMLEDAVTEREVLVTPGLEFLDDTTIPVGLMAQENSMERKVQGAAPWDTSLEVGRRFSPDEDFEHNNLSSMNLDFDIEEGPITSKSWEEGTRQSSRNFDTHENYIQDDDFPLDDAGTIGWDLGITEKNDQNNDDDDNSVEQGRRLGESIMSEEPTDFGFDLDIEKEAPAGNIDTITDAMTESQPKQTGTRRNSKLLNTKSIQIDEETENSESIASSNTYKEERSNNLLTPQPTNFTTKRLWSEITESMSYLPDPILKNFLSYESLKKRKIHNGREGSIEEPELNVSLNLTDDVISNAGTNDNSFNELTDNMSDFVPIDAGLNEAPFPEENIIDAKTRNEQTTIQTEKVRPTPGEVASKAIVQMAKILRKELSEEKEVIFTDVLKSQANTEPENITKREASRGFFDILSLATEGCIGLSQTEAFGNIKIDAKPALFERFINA
T2 sequence (P40541 whole entry, chain 4 of 2): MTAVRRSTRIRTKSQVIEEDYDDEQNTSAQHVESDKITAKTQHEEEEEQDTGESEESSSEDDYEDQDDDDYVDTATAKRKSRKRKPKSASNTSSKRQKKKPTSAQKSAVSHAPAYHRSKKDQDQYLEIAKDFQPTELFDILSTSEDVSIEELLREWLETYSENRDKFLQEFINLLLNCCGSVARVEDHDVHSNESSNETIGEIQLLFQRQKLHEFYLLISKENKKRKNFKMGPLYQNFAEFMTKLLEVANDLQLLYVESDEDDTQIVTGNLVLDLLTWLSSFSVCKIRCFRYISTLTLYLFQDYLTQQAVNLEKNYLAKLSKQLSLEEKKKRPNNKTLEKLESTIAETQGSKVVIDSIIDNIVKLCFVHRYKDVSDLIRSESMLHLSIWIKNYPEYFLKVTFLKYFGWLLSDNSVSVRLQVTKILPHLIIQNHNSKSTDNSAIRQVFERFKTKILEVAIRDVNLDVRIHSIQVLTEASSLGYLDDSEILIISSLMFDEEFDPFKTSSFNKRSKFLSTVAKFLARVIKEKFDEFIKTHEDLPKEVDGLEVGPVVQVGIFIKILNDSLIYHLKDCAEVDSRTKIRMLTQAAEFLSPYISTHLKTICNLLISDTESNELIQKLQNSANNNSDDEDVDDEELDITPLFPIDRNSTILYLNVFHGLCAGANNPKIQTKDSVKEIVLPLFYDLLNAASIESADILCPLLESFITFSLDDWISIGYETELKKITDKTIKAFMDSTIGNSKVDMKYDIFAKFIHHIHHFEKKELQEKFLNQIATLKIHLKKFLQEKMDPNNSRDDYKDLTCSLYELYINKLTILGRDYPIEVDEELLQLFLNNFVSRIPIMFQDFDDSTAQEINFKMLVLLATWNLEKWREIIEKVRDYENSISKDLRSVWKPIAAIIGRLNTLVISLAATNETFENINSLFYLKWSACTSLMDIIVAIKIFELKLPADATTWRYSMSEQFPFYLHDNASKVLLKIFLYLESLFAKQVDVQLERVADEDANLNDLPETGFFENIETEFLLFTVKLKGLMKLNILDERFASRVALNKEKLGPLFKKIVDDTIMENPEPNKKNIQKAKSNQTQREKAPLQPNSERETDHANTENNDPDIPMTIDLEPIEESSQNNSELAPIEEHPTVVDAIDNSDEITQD

binding result [1]: binds
binding result [2]: binds
B1: Chl1 (natural protein, S. cerevisiae (budding yeast), UniProt P22516 1-861, looked up)
chain: MDKKEYSETFYHPYKPYDIQVQLMETVYRVLSEGKKIAILESPTGTGKTLSLICATMTWLRMNKADIFTRMETNIKTNEDDSENLSDDEPDWVIDTYRKSVLQEKVDLLNDYEKHLNEINTTSCKQLKTMCDLDKEHGRYKSVDPLRKKRKGARHLDVSLEEQDFIPRPYESDSENNDTSKSTRGGRISDKDYKLSELNSQIITLLDKIDGKVSRDPNNGDRFDVTNQNPVKIYYASRTYSQLGQFTSQLRLPSFPSSFRDKVPDEKVKYLPLASKKQLCINPKVMKWKTLEAINDACADLRHSKEGCIFYQNTNEWRHCPDTLALRDMIFSEIQDIEDLVPLGKSLGICPYYASREALPIAEVVTLPYQYLLSESTRSSLQINLENSIVIIDEAHNLIETINSIYSSQISLEDLKNCHKGIVTYFNKFKSRLNPGNRVNLLKLNSLLMTLIQFIVKNFKKIGQEIDPNDMFTGSNIDTLNIHKLLRYIKVSKIAYKIDTYNQALKEEESSKNENPIKETHKKSVSSQPLLFKVSQFLYCLTNLTSEGQFFFEKNYSIKYMLLEPSKPFESILNQAKCVVLAGGTMEPMSEFLSNLLPEVPSEDITTLSCNHVIPKENLQTYITNQPELEFTFEKRMSPSLVNNHLFQFFVDLSKAVPKKGGIVAFFPSYQYLAHVIQCWKQNDRFATLNNVRKIFYEAKDGDDILSGYSDSVAEGRGSLLLAIVGGKLSEGINFQDDLCRAVVMVGLPFPNIFSGELIVKRKHLAAKIMKSGGTEEEASRATKEFMENICMKAVNQSVGRAIRHANDYANIYLLDVRYNRPNFRKKLSRWVQDSINSEHTTHQVISSTRKFFSMRSLNSR
notes: Chl1, budding yeast; codon-optimized ectopic copy; also called Flag-tagged Chl1; Chl1 helicase

binding result [3]: binds
B2: Smc1 (natural protein, S. cerevisiae (budding yeast), UniProt P32908 1-1225, looked up)
chain: MGRLVGLELSNFKSYRGVTKVGFGESNFTSIIGPNGSGKSNMMDAISFVLGVRSNHLRSNILKDLIYRGVLNDENSDDYDNEGAASSNPQSAYVKAFYQKGNKLVELMRIISRNGDTSYKIDGKTVSYKDYSIFLENENILIKAKNFLVFQGDVEQIAAQSPVELSRMFEEVSGSIQYKKEYEELKEKIEKLSKSATESIKNRRRIHGELKTYKEGINKNEEYRKQLDKKNELQKFQALWQLYHLEQQKEELTDKLSALNSEISSLKGKINNEMKSLQRSKSSFVKESAVISKQKSKLDYIFKDKEKLVSDLRLIKVPQQAAGKRISHIEKRIESLQKDLQRQKTYVERFETQLKVVTRSKEAFEEEIKQSARNYDKFKLNENDLKTYNCLHEKYLTEGGSILEEKIAVLNNDKREIQEELERFNKRADISKRRITEELSITGEKLDTQLNDLRVSLNEKNALHTERLHELKKLQSDIESANNQEYDLNFKLRETLVKIDDLSANQRETMKERKLRENIAMLKRFFPGVKGLVHDLCHPKKEKYGLAVSTILGKNFDSVIVENLTVAQECIAFLKKQRAGTASFIPLDTIETELPTLSLPDSQDYILSINAIDYEPEYEKAMQYVCGDSIICNTLNIAKDLKWKKGIRGKLVTIEGALIHKAGLMTGGISGDANNRWDKEEYQSLMSLKDKLLIQIDELSNGQRSNSIRAREVENSVSLLNSDIANLRTQVTQQKRSLDENRLEIKYHNDLIEKEIQPKITELKKKLDDLENTKDNLVKEKEALQNNIFKEFTSKIGFTIKEYENHSGELMRQQSKELQQLQKQILTVENKLQFETDRLSTTQRRYEKAQKDLENAQVEMKSLEEQEYAIEMKIGSIESKLEEHKNHLDELQKKFVTKQSELNSSEDILEDMNSNLQVLKRERDGIKEDIEKFDLERVTALKNCKISNINIPISSETTIDDLPISSTDNEAITISNSIDINYKGLPKKYKENNTDSARKELEQKIHEVEEILNELQPNARALERYDEAEGRFEVINNETEQLKAEEKKILNQFLKIKKKRKELFEKTFDYVSDHLDAIYRELTKNPNSNVELAGGNASLTIEDEDEPFNAGIKYHATPPLKRFKDMEYLSGGEKTVAALALLFAINSYQPSPFFVLDEVDAALDITNVQRIAAYIRRHRNPDLQFIVISLKNTMFEKSDALVGVYRQQQENSSKIITLDLSNYAE
notes: Smc1, budding yeast; the Smc1 chain of m1; Stood in the cross-linking sample as a chain of cohesin; source: purified as part of cohesin, as previously described (Minamino et al. 2018)

binding result [3]: binds
B3: Csm3 (natural protein, S. cerevisiae (budding yeast), UniProt Q04659 1-317, looked up)
chain: MDQDFDSLLLGFNDSDSVQKDPTVPNGLDGSVVDPTIADPTAITARKRRPQVKLTAEKLLSDKGLPYVLKNAHKRIRISSKKNSYDNLSNIIQFYQLWAHELFPKAKFKDFMKICQTVGKTDPVLREYRVSLFRDEMGMSFDVGTRETGQDLERQSPMVEEHVTSAEERPIVADSFAQDKRNVNNVDYDNDEDDDIYHLSYRNRRGRVLDERGNNETVLNNVVPPKEDLDALLKTFRVQGPVGLEENEKKLLLGWLDAHRKMEKGSMTEEDVQLIQSLEEWEMNDIEGQHTHYDLLPGGDEFGVDQDELDAMKEMGF
notes: Csm3, budding yeast; the Csm3 chain of m2; Stood in the cross-linking sample as a chain of the Tof1-Csm3 complex; source: purified as part of Tof1-Csm3, as previously described (Yeeles et al. 2017)

binding result [3]: binds
B4: Smc3 (natural protein, S. cerevisiae (budding yeast), UniProt P47037 1-1230, looked up)
chain: MYIKRVIIKGFKTYRNETIIDNFSPHQNVIIGSNGSGKSNFFAAIRFVLSDDYSNLKREERQGLIHQGSGGSVMSASVEIVFHDPDHSMILPSGVLSRGDDEVTIRRTVGLKKDDYQLNDRNVTKGDIVRMLETAGFSMNNPYNIVPQGKIVALTNAKDKERLQLLEDVVGAKSFEVKLKASLKKMEETEQKKIQINKEMGELNSKLSEMEQERKELEKYNELERNRKIYQFTLYDRELNEVINQMERLDGDYNNTVYSSEQYIQELDKREDMIDQVSKKLSSIEASLKIKNATDLQQAKLRESEISQKLTNVNVKIKDVQQQIESNEEQRNLDSATLKEIKSIIEQRKQKLSKILPRYQELTKEEAMYKLQLASLQQKQRDLILKKGEYARFKSKDERDTWIHSEIEELKSSIQNLNELESQLQMDRTSLRKQYSAIDEEIEELIDSINGPDTKGQLEDFDSELIHLKQKLSESLDTRKELWRKEQKLQTVLETLLSDVNQNQRNVNETMSRSLANGIINVKEITEKLKISPESVFGTLGELIKVNDKYKTCAEVIGGNSLFHIVVDTEETATLIMNELYRMKGGRVTFIPLNRLSLDSDVKFPSNTTTQIQFTPLIKKIKYEPRFEKAVKHVFGKTIVVKDLGQGLKLAKKHKLNAITLDGDRADKRGVLTGGYLDQHKRTRLESLKNLNESRSQHKKILEELDFVRNELNDIDTKIDQVNGNIRKVSNDRESVLTNIEVYRTSLNTKKNEKLILEESLNAIILKLEKLNTNRTFAQEKLNTFENDLLQEFDSELSKEEKERLESLTKEISAAHNKLNITSDALEGITTTIDSLNAELESKLIPQENDLESKMSEVGDAFIFGLQDELKELQLEKESVEKQHENAVLELGTVQREIESLIAEETNNKKLLEKANNQQRLLLKKLDNFQKSVEKTMIKKTTLVTRREELQQRIREIGLLPEDALVNDFSDITSDQLLQRLNDMNTEISGLKNVNKRAFENFKKFNERRKDLAERASELDESKDSIQDLIVKLKQQKVNAVDSTFQKVSENFEAVFERLVPRGTAKLIIHRKNDNANDHDESIDVDMDAESNESQNGKDSEIMYTGVSISVSFNSKQNEQLHVEQLSGGQKTVCAIALILAIQMVDPASFYLFDEIDAALDKQYRTAVATLLKELSKNAQFICTTFRTDMLQVADKFFRVKYENKISTVIEVNREEAIGFIRGSNKFAEV
notes: Smc3, budding yeast; the Smc3 chain of m1; Stood in the cross-linking sample as a chain of cohesin; source: purified as part of cohesin, as previously described (Minamino et al. 2018)
